Assay results from patent US8034769.

Key:
CD4 = CD4 (UniProt P01730); assay: SPR, BIACORE 2000, CD4 immobilized on C1 chip
HIV-GP120 (HIV-1) = assay: SPR, BIACORE 2000, HIV-GP120 immobilized on C1 chip

Sequence of oxidized antithrombin III (P01008 33-464): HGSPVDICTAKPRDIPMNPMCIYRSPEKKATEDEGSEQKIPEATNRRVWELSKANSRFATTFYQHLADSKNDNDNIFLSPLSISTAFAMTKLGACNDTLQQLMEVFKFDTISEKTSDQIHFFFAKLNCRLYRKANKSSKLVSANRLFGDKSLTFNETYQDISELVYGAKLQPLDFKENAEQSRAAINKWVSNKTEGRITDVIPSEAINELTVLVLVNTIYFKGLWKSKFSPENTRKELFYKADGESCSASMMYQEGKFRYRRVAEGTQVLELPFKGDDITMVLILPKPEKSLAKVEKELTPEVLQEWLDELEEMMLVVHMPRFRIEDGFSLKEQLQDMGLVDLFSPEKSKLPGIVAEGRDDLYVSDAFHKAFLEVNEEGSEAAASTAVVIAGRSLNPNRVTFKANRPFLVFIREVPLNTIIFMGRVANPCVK

oxidized antithrombin III was tested, and the Kd (CD4) was 1.63 nM, the kon (CD4) was 713000 M⁻¹ s⁻¹ and the Kd (HIV-GP120 (HIV-1)) was 0.701 nM. The kon (HIV-GP120 (HIV-1)) was 638000 M⁻¹ s⁻¹.
